Data reported in patent US20110142851A1 (EMERGENT PRODUCT DEVELOPMENT SEATTLE, published 2011).

B1: SEQ ID NO: 679 (scFv) (scFv)
scFv: EVQLLESGGGLVQPGGSLRLSCAASGFTFSWYLMHWVRQAPGKGLEWVSGIWPSGGHTLYADSVKGRFTISRDNSKNTLYLQMNSLRAEDTAVYYCAREPLLWFGELSYNWFDPWGQGTLVTVSSGGGGSGGGGSGGGGSQDIQMTQSPSSVSASVGDRVTITCRASQGISSWLAWYQQKPGKAPKLLIYAASSLQSGVPSRFSGSGSGTDFTLTISSLQPEDFATYYCQQANSFPLTFGGGTKVEIK
B2: sIL6R Fc dimer (Fc fusion, UniProt P08887 20-358, looked up)
chain: LAPRRCPAQEVARGVLTSLPGDSVTLTCPGVEPEDNATVHWVLRKPAAGSHPSRWAGMGRRLLLRSVQLHDSGNYSCYRAGRPAGTVHLLVDVPPEEPQLSCFRKSPLSNVVCEWGPRSTPSLTTKAVLLVRKFQNSPAEDFQEPCQYSQESQKFSCQLAVPEGDSSFYIVSMCVASSVGSKFSKTQTFQGCGILQPDPPANITVTAVARNPRWLSVTWQDPHSWNSSFYRLRFELRYRAERSKTFTTWMVKDLQHHCVIHDAWSGLRHVVQLRAQEEFGQGEWSEWSPEAMGTPWTESRSPPAENEVSTPMQALTTNKDDDNILFRDSANATSLPVQD
notes: not shown: Fc
B3: hu HIL6 AFH monomer (other)
chain: PEEPQLSCFRKSPLSNVVCEWGPRSTPSLTTKAVLLVRKFQNSPAEDFQEPCQYSQESQKFSCQLAVPEGDSSFYIVSMCVASSVGSKFSKTQTFQGCGILQPDPPANITVTAVARNPRWLSVTWQDPHSWNSSFYRLRFELRYRAERSKTFTTWMVKDLQHHCVIHDAWSGLRHVVQLRAQEEFGQGEWSEWSPEAMGTPWTESRSPPAGGGSDVAAPHRQPLTSSERIDKQIRYILDGISALRKETCNKSNMCESSKEALAENNLNLPKMAEKDGCFQSGFNEETCLVKIITGLLEFEVYLEYLQNRFESSEEQARAVQMSTKVLIQFLQKKAKNLDAITTPDPTTNASLLTKLQAQNQWLQDMTTHLILRSFKEFLQSSLRALRQM
B4: TRU(S6)-1002 (Fc fusion)
chain: EVQLLESGGGLVQPGGSLRLSCAASGFTFSFYQMHWVRQAPGKGLEWVSGIYPSGGYTKYADSVKGRFTISRDNSKNTLYLQMNSLRAEDTAVYYCARDLGYGSSWYYFDYWGQGTLVTVSSGGGGSGGGGSGGGGSQSALTQPASVSGSPGQSITISCSGTDSDVGGYNHVSWYQQHPGKAPKLIIYDVDHRPSGISNRFSGSKSGNTASLTISGLQAEDEADYYCSSYRSGSTYVFGTGTKVTVLTGEPKSSDKTHTCPPCPAPEAAGAPSVFLFPPKPKDTLMISRTPEVTCVVVDVSHEDPEVKFNWYVDGVEVHNAKTKPREEQYNSTYRVVSVLTVLHQDWLNGKAYACAVSNKALPAPIEKTISKAKGQPREPQVYTLPPSRDELTKNQVSLTCLVKGFYPSDIAVEWESNGQPENNYKTTPPVLDSDGSFFLYSKLTVDKSRWQQGNVFSCSVMHEALHNHYTQKSLSLSPGK
notes: SMIP (scFv - linker - CH2CH3); also called S6-A2
B5: TRU(S6)-1013 (Fc fusion)
chain: EVQLLESGGGLVQPGGSLRLSCAASGFTFSGYVMGWVRQAPGKGLEWVSSISPSGGYTLYADSVKGRFTISRDNSKNTLYLQMNSLRAEDTAVYYCARAFSTRWYWGAFDIWGQGTMVTVSSGGGGSGGGGSGGGGSQDIQMTQSPATLSLSPGERATLSCRASQSVRSYLAWYQQKPGQAPRLLIYDASNRATGIPARFSGSGSGTDFTLTITSLQPEDIATYYCQQYDNLPLTFGGGTKVEIKTGEPKSSDKTHTCPPCPAPEAAGAPSVFLFPPKPKDTLMISRTPEVTCVVVDVSHEDPEVKFNWYVDGVEVHNAKTKPREEQYNSTYRVVSVLTVLHQDWLNGKAYACAVSNKALPAPIEKTISKAKGQPREPQVYTLPPSRDELTKNQVSLTCLVKGFYPSDIAVEWESNGQPENNYKTTPPVLDSDGSFFLYSKLTVDKSRWQQGNVFSCSVMHEALHNHYTQKSLSLSPGK
notes: SMIP (scFv - linker - CH2CH3)
B6: SEQ ID NO: 671 (scFv) (scFv)
scFv: EVQLLESGGGLVQPGGSLRLSCAASGFTFSFYQMHWVRQAPGKGLEWVSGIYPSGGYTKYADSVKGRFTISRDNSKNTLYLQMNSLRAEDTAVYYCARDLGYGSSWYYFDYWGQGTLVTVSSGGGGSGGGGSGGGGSQSALTQPASVSGSPGQSITISCSGTDSDVGGYNHVSWYQQHPGKAPKLIIYDVDHRPSGISNRFSGSKSGNTASLTISGLQAEDEADYYCSSYRSGSTYVFGTGTKVTVL

Columns and labels:
[1] = target: T1, hu HIL6 Fc dimer (dimeric human HIL6/mouse IgG Fc fusion protein) (human); experiment: SPR Biacore T100, HIL6-mouse Fc captured by anti-mouse Fc, scFv injected
T1 construct: also called human hyper-IL6 (IL6R-IL6-mIgG); dimeric HIL6
T1 chain: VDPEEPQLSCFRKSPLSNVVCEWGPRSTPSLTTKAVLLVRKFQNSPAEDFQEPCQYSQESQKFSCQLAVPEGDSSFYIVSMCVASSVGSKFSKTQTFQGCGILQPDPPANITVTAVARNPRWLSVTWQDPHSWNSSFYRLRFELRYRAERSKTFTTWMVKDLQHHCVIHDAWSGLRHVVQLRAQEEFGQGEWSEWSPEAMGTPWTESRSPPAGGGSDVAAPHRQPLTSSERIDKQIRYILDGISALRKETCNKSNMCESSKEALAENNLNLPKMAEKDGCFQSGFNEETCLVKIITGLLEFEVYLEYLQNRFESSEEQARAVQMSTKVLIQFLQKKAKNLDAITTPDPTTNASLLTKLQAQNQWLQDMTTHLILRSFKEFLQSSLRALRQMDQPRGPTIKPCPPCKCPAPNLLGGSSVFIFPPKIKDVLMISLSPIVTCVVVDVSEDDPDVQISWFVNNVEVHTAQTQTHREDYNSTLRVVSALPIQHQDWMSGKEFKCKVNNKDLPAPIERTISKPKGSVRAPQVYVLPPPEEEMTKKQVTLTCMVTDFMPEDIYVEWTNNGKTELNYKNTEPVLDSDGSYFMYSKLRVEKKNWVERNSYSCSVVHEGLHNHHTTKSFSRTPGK

[2] = target: T2, human gp130-Fc chimera (R&D Systems) (human, UniProt P40189 23-619); experiment: SPR Biacore T100, binder captured by anti-human Fc
T2 construct: Bought product; also called Human gp130-human IgG Fc fusion protein; soluble gp130; not shown: human IgG Fc
T2 sequence (looked up): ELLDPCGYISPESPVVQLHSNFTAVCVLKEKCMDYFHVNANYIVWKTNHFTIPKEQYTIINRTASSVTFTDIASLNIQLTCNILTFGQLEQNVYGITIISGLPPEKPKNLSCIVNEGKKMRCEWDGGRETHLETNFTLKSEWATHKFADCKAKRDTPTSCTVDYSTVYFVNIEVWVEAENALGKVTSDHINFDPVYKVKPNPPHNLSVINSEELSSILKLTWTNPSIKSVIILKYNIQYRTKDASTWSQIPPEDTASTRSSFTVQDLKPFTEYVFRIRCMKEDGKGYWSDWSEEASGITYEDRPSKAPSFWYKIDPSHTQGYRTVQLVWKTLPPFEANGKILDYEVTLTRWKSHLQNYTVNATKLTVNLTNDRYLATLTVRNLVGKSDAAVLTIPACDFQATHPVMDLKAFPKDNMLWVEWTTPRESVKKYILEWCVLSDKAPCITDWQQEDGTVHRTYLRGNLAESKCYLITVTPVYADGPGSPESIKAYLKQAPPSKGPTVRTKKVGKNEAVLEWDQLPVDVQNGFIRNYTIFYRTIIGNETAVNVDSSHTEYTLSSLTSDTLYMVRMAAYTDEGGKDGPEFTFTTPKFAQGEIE

hu HIL6 AFH monomer = target: B3; experiment: SPR Biacore T100, binder captured by anti-human Fc
Protocol: (§1) Binding affinities and kinetic rate constants of interaction of hyper-IL6 (HIL6; monomer or dimer), and its components IL6 and sIL6R, with different anti-HIL6 binding domains in scFv, SMIP, Xceptor and reverse Xceptor formats were determined using a Biacore® T100 instrument (GE Healthcare, Piscataway, N.J.).
(§2) Anti-HIL6 SMIPS, Xceptors, and reverse Xceptors were captured by a monoclonal mouse anti-human Fc, which was covalently conjugated to a carboxylmethyl dextran (CM4) surface via amines using N-ethyl-N′-(3-dimethylaminopropyl)-carbodiimide hydrochloride and N-hydroxysuccinimide. The unoccupied sites of the activated surface were blocked by ethanolamine. […] In every cycle, three different HIL6 binders were captured on flow cells 2, 3 and 4, while flow cell 1 was used as the reference cell. For each cycle, a single concentration of a single HIL6-related molecule was injected for 150 seconds at 35 microliters per minute, and then allowed to dissociate for 300 seconds. At the end of the cycle, the surface was regenerated gently using 3M MgCl₂, which dissociates protein bound to anti-hFc capture antibody. Multiple cycles were performed to study binding of monomeric or dimeric HIL6 at different concentrations, in the range of 0-100 nM, for each set of three HIL6 binders captured. […] The experiment was performed at 25° C. Signal associated with binding to the reference cell was used to subtract for bulk refractive changes and blank (buffer-only) injections were used to correct for drift and system noise. The kinetic parameters and affinities were determined using BIAevaluation software. Anti-HIL6 scFv molecules were analyzed in the reverse orientation using a dimeric human HIL6/mouse IgG Fc fusion protein captured by an immobilized rabbit polyclonal anti-mouse IgG Fc antibody on the surface and injecting different concentrations of scFv over the surface. For the HIL6 components IL6 (eBioscience, catalog no. 14-8069) and sIL6R, a single 100 nM injection was performed to obtain a qualitative assessment of binding.

[3] = target: T1, hu HIL6 Fc dimer (dimeric human …); experiment: SPR Biacore T100, binder captured by anti-human Fc
Protocol: as §1, §2

recombinant human IL6 = target: T3, recombinant human IL6 (human, UniProt P05231 30-212); experiment: SPR Biacore T100, binder captured by anti-human Fc
T3 construct: also called rhIL6; IL6 monomer
Protocol: as §1, §2

IL6:sIL6R complex = target: T4, IL6:sIL6R complex (human, UniProt P05231 30-212; P08887 20-358); experiment: SPR Biacore, SMIP captured by anti-human Fc, complex injected
T4 construct: Non-covalent complex made by mixing 50 nM of each; about 30 nM complex estimated
Protocol: In every cycle, three different HIL6 binders were captured on flow cells 2, 3 and 4, while flow cell 1 was used as the reference cell. For each cycle, a single concentration of a single HIL6-related molecule was injected for 150 seconds at 35 microliters per minute, and then allowed to dissociate for 300 seconds. At the end of the cycle, the surface was regenerated gently using 3M MgCl₂, which dissociates protein bound to anti-hFc capture antibody. Multiple cycles were performed to study binding of monomeric or dimeric HIL6 at different concentrations, in the range of 0-100 nM, for each set of three HIL6 binders captured. […] The experiment was performed at 25° C. Signal associated with binding to the reference cell was used to subtract for bulk refractive changes and blank (buffer-only) injections were used to correct for drift and system noise. The kinetic parameters and affinities were determined using BIAevaluation software. Anti-HIL6 scFv molecules were analyzed in the reverse orientation using a dimeric human HIL6/mouse IgG Fc fusion protein captured by an immobilized rabbit polyclonal anti-mouse IgG Fc antibody on the surface and injecting different concentrations of scFv over the surface. For the HIL6 components IL6 (eBioscience, catalog no. 14-8069) and sIL6R, a single 100 nM injection was performed to obtain a qualitative assessment of binding.

sIL6R Fc dimer = target: B2; experiment: SPR Biacore T100, binder captured by anti-human Fc
Protocol: as §1, §2

Row | Kd [1] [nM] | Kd (hu HIL6 AFH monomer) [nM] | Kd [3] [nM] | binding result (recombinant human IL6) | further results | Binder
1 | 1.46 |  |  |  |  | B1
2 |  |  |  |  | binding result [2]: no binding (tested: 100 nM) | B2
3 |  |  |  |  | Kd [2]: 0.68 nM | B3
4 |  | 2 | 1.3 | no binding (tested: 100 nM) | binding result (IL6:sIL6R complex): binds | B4
5 |  | 31 | 200 | no binding (tested: 100 nM) | binding result (sIL6R Fc dimer): no binding (tested: 100 nM) | B5
6 | 1.04 |  |  |  |  | B6
